{
  "source": "patent US20080299638A1",
  "about": "(priority 2004, published 2008)",
  "molecules": {"B1": {"name": "Arginase: Pegylated recombinant human arginase (BCT-100); human arginase I with N-terminal six-histidine tag, SEQ ID NO: 3 (protein, listed as Homo sapiens)", "chain": "MHHHHHHMSAKSRTIGIIGAPFSKGQPRGGVEEGPTVLRKAGLLEKLKEQECDVKDYGDLPFADIPNDSPFQIVKNPRSVGKASEQLAGKVAQVKKNGRISLVLGGDHSLAIGSISGHARVHPDLGVIWVDAHTDINTPLTTTSGNLHGQPVSFLLKELKGKIPDVPGFSWVTPCISAKDIVYIGLRDVDPGEHYILKTLGIKYFSMTEVDRLGIGKVMEETLSYLLGRKKRPIHLSFDVDGLDPSFTPATGTPVVGGLTYREGLYITEEIYKTGLLSGLDIMEVNPSLGKTPEEVTRTVNTAVAITLACFGLAREGNHKPIDYLNPPK", "modifications": "PEGylated"}},
  "tested_on": "HBV-DNA in 2.2.15 cells",
  "assay": "HBV-DNA Southern blot in 2.2.15 cells",
  "type": "cell-based, hepatitis B virus",
  "experimental": "Southern blot: Extraction of HBV-DNA from 2.2.15 cells: add drugs and incubate 2.2.15 cells for 8 days, remove medium and harvest cells, lyse cells with lysis solutions, extracts with equal volume phenol:chloroform:isopentanol twice, add absolute ethanol to precipitate nucleic acid, vacuum dry, re-dissolve in 20 μl TE buffer, add DNA sample buffer, put samples into agarose gel for electrophoresis. After electrophoresis, denature, neutralize and transfer to membrane. Oven dry, hybridize, expose with dot blotting the same time. Scan developed film with scanner, analyze relative density with gel-pro software, and calculate suppression rate and IC50.",
  "key": {"[1]": {"details": "Arginase 2.5 μg/ml (unit as headed), batch 1, day 8"}, "[2]": {"details": "Arginase 2.5 μg/ml (unit as headed), batch 2, day 8"}, "[3]": {"details": "Arginase 5 μg/ml (unit as headed), batch 1, day 8"}, "[4]": {"details": "Arginase 5 μg/ml (unit as headed), batch 2, day 8"}, "[5]": {"details": "Arginase 10 μg/ml (unit as headed), batch 1, day 8"}, "[6]": {"details": "Arginase 10 μg/ml (unit as headed), batch 2, day 8"}, "[7]": {"details": "Arginase 20 μg/ml (unit as headed), batch 1, day 8"}, "[8]": {"details": "Arginase 20 μg/ml (unit as headed), batch 2, day 8"}},
  "data": [
    {"molecule": "B1", "values": [
      {"measurement": "Effect on HBV-DNA in cells (result in words)", "setting": "2.2.15 cells, 8 days", "result": "lowers"},
      {"measurement": "HBV-DNA Southern Blot In Lane % Suppression", "setting": "[1]", "result": 31.6525, "unit": "%"},
      {"measurement": "HBV-DNA Southern Blot Sum % Suppression", "setting": "[1]", "result": 26.4131, "unit": "%"},
      {"measurement": "HBV-DNA Southern Blot Sum (IOD)", "setting": "Arginase 2.5 μg/ml (unit as headed), batch 1, day 8, control 29421", "result": 21650, "unit": "IOD"},
      {"measurement": "HBV-DNA Southern Blot In Lane (IOD)", "setting": "Arginase 2.5 μg/ml (unit as headed), batch 1, day 8, control 42082", "result": 28762, "unit": "IOD"},
      {"measurement": "HBV-DNA Southern Blot In Lane % Suppression", "setting": "[2]", "result": 38.6255, "unit": "%"},
      {"measurement": "HBV-DNA Southern Blot Sum % Suppression", "setting": "[2]", "result": 0, "unit": "%"},
      {"measurement": "HBV-DNA Southern Blot Sum (IOD)", "setting": "Arginase 2.5 μg/ml (unit as headed), batch 2, day 8, control 66143", "result": 68619, "unit": "IOD"},
      {"measurement": "HBV-DNA Southern Blot In Lane (IOD)", "setting": "Arginase 2.5 μg/ml (unit as headed), batch 2, day 8, control 76188", "result": 88350, "unit": "IOD"},
      {"measurement": "HBV-DNA Southern Blot In Lane % Suppression", "setting": "[3]", "result": 31.5717, "unit": "%"},
      {"measurement": "HBV-DNA Southern Blot Sum % Suppression", "setting": "[3]", "result": 31.6679, "unit": "%"},
      {"measurement": "HBV-DNA Southern Blot Sum (IOD)", "setting": "Arginase 5 μg/ml (unit as headed), batch 1, day 8, control 29421", "result": 20104, "unit": "IOD"},
      {"measurement": "HBV-DNA Southern Blot In Lane (IOD)", "setting": "Arginase 5 μg/ml (unit as headed), batch 1, day 8, control 42082", "result": 28796, "unit": "IOD"},
      {"measurement": "HBV-DNA Southern Blot In Lane % Suppression", "setting": "[4]", "result": 19.0752, "unit": "%"},
      {"measurement": "HBV-DNA Southern Blot Sum % Suppression", "setting": "[4]", "result": 30.0259, "unit": "%"},
      {"measurement": "HBV-DNA Southern Blot Sum (IOD)", "setting": "Arginase 5 μg/ml (unit as headed), batch 2, day 8, control 66143", "result": 46283, "unit": "IOD"},
      {"measurement": "HBV-DNA Southern Blot In Lane (IOD)", "setting": "Arginase 5 μg/ml (unit as headed), batch 2, day 8, control 76188", "result": 61655, "unit": "IOD"},
      {"measurement": "HBV-DNA Southern Blot In Lane % Suppression", "setting": "[5]", "result": 22.7722, "unit": "%"},
      {"measurement": "HBV-DNA Southern Blot Sum % Suppression", "setting": "[5]", "result": 17.6303, "unit": "%"},
      {"measurement": "HBV-DNA Southern Blot Sum (IOD)", "setting": "Arginase 10 μg/ml (unit as headed), batch 1, day 8, control 29421", "result": 24234, "unit": "IOD"},
      {"measurement": "HBV-DNA Southern Blot In Lane (IOD)", "setting": "Arginase 10 μg/ml (unit as headed), batch 1, day 8, control 42082", "result": 32499, "unit": "IOD"},
      {"measurement": "HBV-DNA Southern Blot In Lane % Suppression", "setting": "[6]", "result": 13.0559, "unit": "%"},
      {"measurement": "HBV-DNA Southern Blot Sum % Suppression", "setting": "[6]", "result": 29.1172, "unit": "%"},
      {"measurement": "HBV-DNA Southern Blot Sum (IOD)", "setting": "Arginase 10 μg/ml (unit as headed), batch 2, day 8, control 66143", "result": 46884, "unit": "IOD"},
      {"measurement": "HBV-DNA Southern Blot In Lane (IOD)", "setting": "Arginase 10 μg/ml (unit as headed), batch 2, day 8, control 76188", "result": 66241, "unit": "IOD"},
      {"measurement": "HBV-DNA Southern Blot In Lane % Suppression", "setting": "[7]", "result": 25.2982, "unit": "%"},
      {"measurement": "HBV-DNA Southern Blot Sum % Suppression", "setting": "[7]", "result": 14.9893, "unit": "%"},
      {"measurement": "HBV-DNA Southern Blot Sum (IOD)", "setting": "Arginase 20 μg/ml (unit as headed), batch 1, day 8, control 29421", "result": 25011, "unit": "IOD"},
      {"measurement": "HBV-DNA Southern Blot In Lane (IOD)", "setting": "Arginase 20 μg/ml (unit as headed), batch 1, day 8, control 42082", "result": 31436, "unit": "IOD"},
      {"measurement": "HBV-DNA Southern Blot In Lane % Suppression", "setting": "[8]", "result": 38.6255, "unit": "%"},
      {"measurement": "HBV-DNA Southern Blot Sum % Suppression", "setting": "[8]", "result": 47.9416, "unit": "%"},
      {"measurement": "HBV-DNA Southern Blot Sum (IOD)", "setting": "Arginase 20 μg/ml (unit as headed), batch 2, day 8, control 66143", "result": 34433, "unit": "IOD"},
      {"measurement": "HBV-DNA Southern Blot In Lane (IOD)", "setting": "Arginase 20 μg/ml (unit as headed), batch 2, day 8, control 76188", "result": 46760, "unit": "IOD"},
      {"measurement": "HBV-DNA Southern Blot Sum IC50", "setting": "batch 1, 8 days", "result": 25.42, "unit": "IU/ml"},
      {"measurement": "HBV-DNA Southern Blot In Lane IC50", "setting": "batch 1, day 8", "result": 21.45, "unit": "IU/ml"},
      {"measurement": "HBV-DNA Southern Blot Sum IC50", "setting": "batch 2, 8 days", "result": 14.17, "unit": "IU/ml"},
      {"measurement": "HBV-DNA Southern Blot In Lane IC50", "setting": "batch 2, day 8", "result": 18.67, "unit": "IU/ml"},
      {"measurement": "HBV-DNA Southern Blot Sum IC50", "setting": "two batches average, 8 days", "result": "19.79±7.95", "unit": "IU/ml"},
      {"measurement": "HBV-DNA Southern Blot In Lane IC50", "setting": "two batches average, day 8", "result": "20.06±1.96", "unit": "IU/ml"}
    ]}
  ]
}
